Substitutions are numbered along the chain they refer to.
T1: human MICA002 on cells (human)
T1 chain: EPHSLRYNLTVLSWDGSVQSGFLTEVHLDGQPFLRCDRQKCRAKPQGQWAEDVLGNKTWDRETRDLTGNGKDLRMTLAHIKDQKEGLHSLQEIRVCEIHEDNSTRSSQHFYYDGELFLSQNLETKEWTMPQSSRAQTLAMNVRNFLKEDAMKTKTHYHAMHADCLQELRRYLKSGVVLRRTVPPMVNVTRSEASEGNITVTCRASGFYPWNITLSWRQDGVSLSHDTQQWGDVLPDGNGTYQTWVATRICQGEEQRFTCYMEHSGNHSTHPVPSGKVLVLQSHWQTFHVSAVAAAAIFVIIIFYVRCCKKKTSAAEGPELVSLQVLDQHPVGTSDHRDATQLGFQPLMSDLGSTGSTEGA

B1: D2M001-003 (antibody, V domains shown)
VH: QVQLVQSGAEVKKPGSSVKVSCKASGYAFHDYLIEWVRQAPGQGLEWIGGINPGSGSTNYAQKFQGRATLTADKSTSTAYMELSSLRSEDTAVYYCARLDGNYVGYWGQGTLVTVSS
VL: DIQMTQSPSSLSASVGDRVTITCRASGNIHNYLAWYQQKPGKSPKLLVYHAKTLQSGVPSRFSGSGSGTDYTLTISSLQPEDVATYYCQHFWSTPRTFGGGTKVEIK
notes: only the CDRs are tied to the name in the text; copies: 2 + 2
B2: D2M001-004 (antibody, V domains shown)
VH: B1 VH with H30V, I51V, D100E
VL: B1 VL
notes: as for B1

Target: T1, human MICA002 on cells
Assay: flow cytometry, CHO-MICA002 cells

EC50 [µg/mL] | Binder
3.59 | B1
4.2 | B2

Source: US20250368742A1 (D2M BIOTHERAPEUTICS, published 2025)
